In paper PMC8446579 one finds stoichiometry N data, which are given here for one substance.

The target of this experiment is Candida parapsilosis ATCC 7330 imine reductase CpIM1 (Candida parapsilosis ATCC 7330). Briefly: SEC. In general terms: Size exclusion chromatography separates by hydrodynamic size, large species first.

With “Candida parapsilosis ATCC 7330 imine reductase CpIM1 (enzyme)”, the stoichiometry N came out at 2.

Broadly, the stoichiometry N is a count of units in the complex or per binding partner.
